Reference: patent US20200283532A1 (CANCER RESEARCH TECHNOLOGY, published 2020)

Columns and labels:
Test in all cases: flow cytometry, A375Ppuro cells
[1] = target: Peptide (22) DTPA-NK(Biotin)…-OH
[2] = target: Peptide (25) DTPA-nK(Biotin)…-OH
[3] = target: Peptide (23) DTPA-GNK(Biotin)…-OH
[4] = target: Peptide (26) DTPA-nK(Biotin)…t-OH
[5] = target: Peptide (18) AcHN-NK(Biotin)…-NH2
[6] = target: Peptide (16) AcHN-NK(Biotin)…-OH
[7] = target: Peptide (24) DTPA-NK(Biotin)…-NH2

Measured: binding result

B1: integrin αvβ5 (receptor)
chain 1: FNLDVDSPAEYSGPEGSYFGFAVDFFVPSASSRMFLLVGAPKANTTQPGIVEGGQVLKCDWSSTRRCQPIEFDATGNRDYAKDDPLEFKSHQWFGASVRSKQDKILACAPLYHWRTEMKQEREPVGTCFLQDGTKTVEYAPCRSQDIDADGQGFCQGGFSIDFTKADRVLLGGPGSFYWQGQLISDQVAEIVSKYDPNVYSIKYNNQLATRTAQAIFDDSYLGYSVAVGDFNGDGIDDFVSGVPRAARTLGMVYIYDGKNMSSLYNFTGEQMAAYFGFSVAATDINGDDYADVFIGAPLFMDRGSDGKLQEVGQVSVSLQRASGDFQTTKLNGFEVFARFGSAIAPLGDLDQDGFNDIAIAAPYGGEDKKGIVYIFNGRSTGLNAVPSQILEGQWAARSMPPSFGYSMKGATDIDKNGYPDLIVGAFGVDRAILYRARPVITVNAGLEVYPSILNQDNKTCSLPGTALKVSCFNVRFCLKADGKGVLPRKLNFQVELLLDKLKQKGAIRRALFLYSRSPSHSKNMTISRGGLMQCEELIAYLRDESEFRDKLTPITIFMEYRLDYRTAADTTGLQPILNQFTPANISRQAHILLDCGEDNVCKPKLEVSVDSDQKKIYIGDDNPLTLIVKAQNQGEGAYEAELIVSIPLQADFIGVVRNNEALARLSCAFKTENQTRQVVCDLGNPMKAGTQLLAGLRFSVHQQSEMDTSVKFDLQIQSSNLFDKVSPVVSHKVDLAVLAAVEIRGVSSPDHVFLPIPNWEHKENPETEEDVGPVVQHIYELRNNGPSSFSKAMLHLQWPYKYNNNTLLYILHYDIDGPMNCTSDMEINPLRIKISSLQTTEKNDTVAGQGERDHLITKRDLALSEGDIHTLGCGVAQCLKIVCQVGRLDRGKSAILYVKSLLWTETFMNKENQNHSYSLKSSASFNVIEFPYKNLPIEDITNSTLVTTNVTWGIQPAPMPVPVWVIILAVLAGLLLLAVLVFVMYRMGFFKRVRPPQEEQEREQLQPHENGEGNSET
chain 2: GLNICTSGSATSCEECLLIHPKCAWCSKEDFGSPRSITSRCDLRANLVKNGCGGEIESPASSFHVLRSLPLSSKGSGSAGWDVIQMTPQEIAVNLRPGDKTTFQLQVRQVEDYPVDLYYLMDLSLSMKDDLDNIRSLGTKLAEEMRKLTSNFRLGFGSFVDKDISPFSYTAPRYQTNPCIGYKLFPNCVPSFGFRHLLPLTDRVDSFNEEVRKQRVSRNRDAPEGGFDAVLQAAVCKEKIGWRKDALHLLVFTTDDVPHIALDGKLGGLVQPHDGQCHLNEANEYTASNQMDYPSLALLGEKLAENNINLIFAVTKNHYMLYKNFTALIPGTTVEILDGDSKNIIQLIINAYNSIRSKVELSVWDQPEDLNLFFTATCQDGVSYPGQRKCEGLKIGDTASFEVSLEARSCPSRHTEHVFALRPVGFRDSLEVGVTYNCTCGCSVGLEPNSARCNGSGTYVCGLCECSPGYLGTRCECQDGENQSVYQNLCREAEGKPLCSGRGDCSCNQCSCFESEFGKIYGPFCECDNFSCARNKGVLCSGHGECHCGECKCHAGYIGDNCNCSTDISTCRGRDGQICSERGHCLCGQCQCTEPGAFGEMCEKCPTCPDACSTKRDCVECLLLHSGKPDNQTCHSLCRDEVITWVDTIVKDDQEAVLCFYKTAKDCVMMFTYVELPSGKSNLTVLREPECGNTPNAMTILLAVVGSILLVGLALLAIWKLLVTIHDRREFAKFQSERSRARYEMASNPLYRKPISTHTVDFTFNKFNKSYNGTVD
notes: whole, on cells
no binding (tested: 1000 nM): all assays above

B2: integrin αvβ8 (receptor)
chain 1: B1 chain 1
chain 2: EDNRCASSNAASCARCLALGPECGWCVQEDFISGGSRSERCDIVSNLISKGCSVDSIEYPSVHVIIPTENEINTQVTPGEVSIQLRPGAEANFMLKVHPLKKYPVDLYYLVDVSASMHNNIEKLNSVGNDLSRKMAFFSRDFRLGFGSYVDKTVSPYISIHPERIHNQCSDYNLDCMPPHGYIHVLSLTENITEFEKAVHRQKISGNIDTPEGGFDAMLQAAVCESHIGWRKEAKRLLLVMTDQTSHLALDSKLAGIVVPNDGNCHLKNNVYVKSTTMEHPSLGQLSEKLIDNNINVIFAVQGKQFHWYKDLLPLLPGTIAGEIESKAANLNNLVVEAYQKLISEVKVQVENQVQGIYFNITAICPDGSRKPGMEGCRNVTSNDEVLFNVTVTMKKCDVTGGKNYAIIKPIGFNETAKIHIHRNCSCQCEDNRGPKGKCVDETFLDSKCFQCDENKCHFDEDQFSSESCKSHKDQPVCSGRGVCVCGKCSCHKIKLGKVYGKYCEKDDFSCPYHHGNLCAGHGECEAGRCQCFSGWEGDRCQCPSAAAQHCVNSKGQVCSGRGTCVCGRCECTDPRSIGRFCEHCPTCYTACKENWNCMQCLHPHNLSQAILDQCKTSCALMEQQHYVDQTSECFSSPSYLRIFFIIFIVTFLIGLLKVLIIRQVILQWNSNKIKSSSDYRVSASKKDKLILQSVCTRAVTYRREKPEEIKMDISKLNAHETFRCNF
notes: whole, on cells
no binding (tested: 1000 nM): all assays above
